In the series the target is Staphylococcal enterotoxin B (SEB) (Staphylococcus aureus, UniProt P01552 28-266).

Here are results for two molecules from publication PMC9080154.

Staphylococcal enterotoxin B (SEB), sequence (P01552 28-266): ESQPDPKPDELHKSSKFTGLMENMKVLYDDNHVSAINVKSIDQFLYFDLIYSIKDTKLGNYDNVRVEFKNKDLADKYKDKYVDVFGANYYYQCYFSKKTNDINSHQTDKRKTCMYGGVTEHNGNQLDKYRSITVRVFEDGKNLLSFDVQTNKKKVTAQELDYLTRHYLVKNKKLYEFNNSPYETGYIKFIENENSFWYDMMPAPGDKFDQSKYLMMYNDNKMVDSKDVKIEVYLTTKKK

B1: SEB aptamer (ssDNA)
DNA: GGTATTGAGGGTCGCATCCACTGGTCGTTGTTGTCTGTTGTCTGTTATGTTGTTTCGTGATGGCTCTAACTCTCCTCT
With B1, the binding result is recorded as “binds”.

B2: SEB aptamer1 (6-FAM) (ssDNA)
DNA: B1 DNA
For the molecule B2, the binding result is recorded as “binds”.
